Test results reported in patent publication US11407811B2, “Fusion protein, preparation method therefor and use thereof” (JIANGSU RONGTAI BIOTECH CO., LTD., priority 2017, dated 2022).

What was measured:
[1] = tested on: cervical cancer cell Hela; test: MTT assay, proliferation of cervical cancer cell Hela; assay type: cell-based
Protocol: The MTT assay was used to detect the inhibitory effect of the integrin blocker fusion protein obtained in Example 1 on the proliferation of various tumor cells, including melanoma cell B16F10, gastric cancer cell MGC-803, lung cancer cell A549, liver cancer cell Hep-G2, breast cancer cell MDA-MB-231, colon cancer cell HCT-116, human glioma U87, and cervical cancer cell Hela.
The tumor cells were cultured in a 5% CO2 incubator at 37° C. to a density of 90% or more, and collected by trypsinization. The cells were resuspended in the culture liquid and counted under a microscope. The cell concentration was adjusted to 3.0×10^4 cells/mL. The cell suspension was inoculated into a 96-well plate at 100 μL per well and cultured overnight in a 5% CO2 incubator at 37° C. […] After the cells were fully adhered, each dilution was added to a 96-well plate at 100 μL per well, respectively. […] 20 μL of 5 mg/mL MTT was added to each well of a 96-well plate, and incubation was continued for 4 hours. The medium was aspirated and 100 μL of DMSO per well were added to dissolve. The absorbance was measured at 570 nm with a microplate reader with a reference wavelength of 630 nm, and the proliferation inhibition (PI) was calculated. The formula is as follows: […]
where Ntest is the OD value of the test group and Ncontrol is the OD value of the blank control group.
The test was repeated 5 times independently. The results obtained from the test were calculated as mean±SD, and statistical t-test was performed. P<0.05 was considered as a significant difference, and P<0.01 was considered as an extremely significant difference.

[2] = tested on: adjuvant arthritis in rat; test: Chronic inflammation of adjuvant arthritis in rat; assay type: in vivo; parameters: key to Clinical score Whole body: sum of hind/fore foot, ear, nose, tail scores; full score 8; details: for Clinical score Whole body: full score 8; for Foot swelling degree Left: left hind foot (primary inflammation); for Clinical score Arthritis index: maximum score 16; for Foot swelling degree Right: right foot (secondary inflammation)
Protocol: 80 SPF SD rats were randomly divided into 8 groups. Rats in each group were lightly anesthetized with ether. Then, 0.1 mL of complete Freund's adjuvant containing inactivated Mycobacterium tuberculosis was injected subcutaneously into the left hind foot of the rats. Primary arthritis occurred in the left hind foot of the rat, and at about 13 days post-modeling, secondary arthritis occurred in the right hind foot. A blank control group was injected with an equal volume of physiological saline. The drug was administered 13 days after modeling. A methotrexate group was administered by injection every 5 days for 15 days, 4 times in total; the fusion protein I, protein II, protein III, protein IV, and protein V at high, medium and low doses (128 mg/kg, 32 mg/kg, 8 mg/kg) were administered by injection every 5 days for 15 days.
Using a foot volume measuring method, a marker was made with a fat-soluble marker at the left and right posterior ankle joint of each rat, and the left and right hind feet of the animal were respectively immersed in the volume measuring device. The immersion depth was bounded by the marker, and the reading value at the scale pipette of the device was the initial volume of the animal's left and right hind feet.
The day of modeling was considered as the 0th day and recorded as d0. The volume of the left hind foot (modeling foot) was measured from the first day d1 after modeling every 2 days. When the swelling occurred (i.e., secondary arthritis occurred) at the contralateral non-inflammatory foot (right hind foot), the administration was started. The volume of the left and right hind feet was measured every 2 days, and the degree of primary and secondary toe swelling was determined, which was calculated as follows:
Primary toe swelling (mL)=left hind foot volume on the day of measurement-initial volume of left hind foot
Secondary toe swelling (mL)=right hind foot volume on the day of measurement-initial volume of right hind foot 2. Clinical score
Systemic score: the systemic score was taken every 2 days after the onset of secondary inflammation.
Hind foot: no swelling=0 score, one hind foot swelling=1 score, two hind feet swelling=2 scores;
Forefoot: no swelling=0 score, one forefoot swelling=1 score, two forefeet swelling=2 scores;
Ear: no redness and nodules=0 score, redness or nodules in one ear=1 score, redness and nodules in both ears=2 scores;
Nose: no swelling=0 score, obvious swelling=1 score;
Tail: no nodules=0 score, with nodules=1 score; full score was 8 scores.
Arthritis index score: the arthritis index score was performed every 2 days after the onset of secondary inflammation.
The initial body weight of each group of rats was weighed before modeling. The body weight was measured every 2 days from d1 after modeling, from which the initial body weight was subtracted to obtain the weight gain of each group of rats.

[3] = tested on: IL-1β production by mouse peritoneal macrophages; test: IL-1β production by mouse peritoneal macrophages (ELISA); assay type: cell-based
Protocol: (1) IL-1β production: mice were intraperitoneally injected with 1 mL of broth medium containing 6% starch, and three days later, the mouse peritoneal macrophages were aseptically taken, washed twice with a 1640 medium, and the cell concentration was adjusted to 2×10^6 cells/mL, inoculated into a 24-well culture plate at 1 mL/well, incubated for 3 h in a cell incubator, and shaken once every 30 min, so that the cells were allowed to adhere sufficiently. Then, the cells were washed twice with a culture liquid to remove un-adhered cells. […] The supernatant was taken as a sample for testing activity of IL-1β.
(2) Determination of IL-1β content: the detection was performed by using mouse IL-1β enzyme-linked immunosorbent assay kit from R&D company. According to the instructions of the kit, the procedures were as follows: the reaction well for the test samples and different concentrations of standards were sealed with sealing tapes, respectively, incubation was performed at 37° C. for 90 min; the plate was washed four times; a biotinylated antibody working solution (100 μL/well) was added, the reaction well was sealed with sealing tapes, and incubation was performed at 37° C. for 60 min; the plate was washed four times; an enzyme conjugate working solution (100 μL/well) was added, the reaction well was sealed with sealing tapes, incubation was performed at 37° C. for 30 min; the plate was washed four times; a developer (100 μL/well) was added, incubation was performed at 37° C. for 10 to 20 min, a stop solution (100 μL/well) was added and mixed and the OD450 value was measured.

B1: Protein II: IgG2-Fc linked to antiangiogenesis polypeptide EDSM-Y via a flexible linker; SEQ ID NO: 17 (protein)
chain: ERKCCVECPPCPAPPVAGPSVFLFPPKPKDTLMISRTPEVTCVVVDVSHEDPEVQFNWYVDGVEVHNAKTKPREEQFNSTFRVVSVLTVVHQDWLNGKEYKCKVSNKGLPAPIEKTISKTKGQPREPQVYTLPPSREEMTKNQVSLTCLVKGFYPSDISVEWESNGQPENNYKTTPPMLDSDGSFFLYSKLTVDKSRWQQGNVFSCSVMHEALHNHYTQKSLSLSPGKGGGGSGGGGSGGGGSFQPVLHLVALNSPLSGGMRGIRGADFQCFQQARAVGLAGTFRAGGGGRGD
B1 was tested, and the “A570 nm/A630 nm” value ([1]; dose 1 μg/mL) was 0.7798 ± 0.0386, the “PI (%)” value ([1]; dose 1 μg/mL) was 2.43% and the “A570 nm/A630 nm” value ([1]; dose 2 μg/mL) was 0.7412 ± 0.0407. The “PI (%)” value ([1]; dose 2 μg/mL) was 7.26%, the “A570 nm/A630 nm” value ([1]; dose 4 μg/mL) was 0.6946 ± 0.0272 and the “PI (%)” value ([1]; dose 4 μg/mL) was 13.09%. For the same molecule, the “A570 nm/A630 nm” value ([1]; dose 8 μg/mL) was 0.6312 ± 0.0313, the “PI (%)” value ([1]; dose 8 μg/mL) was 21.02% and the “A570 nm/A630 nm” value ([1]; dose 16 μg/mL) was 0.5418 ± 0.0286. For the same molecule, the “PI (%)” value ([1]; dose 16 μg/mL) was 32.21%, the “A570 nm/A630 nm” value ([1]; dose 32 μg/mL) was 0.4788 ± 0.0262 and the “PI (%)” value ([1]; dose 32 μg/mL) was 40.09%. The “A570 nm/A630 nm” value ([1]; dose 64 μg/mL) was 0.4023 ± 0.0314, the “PI (%)” value ([1]; dose 64 μg/mL) was 49.66% and the “PI (%)” value ([1]; dose 64 μg/mL, listed as protein II) was “about 45%”. For the same molecule, the “A570 nm/A630 nm” value ([1]; dose 128 μg/mL) was 0.2878 ± 0.0275, the “PI (%)” value ([1]; dose 128 μg/mL) was 63.99% and the “A570 nm/A630 nm” value ([1]; dose 256 μg/mL) was 0.1748 ± 0.0303. The “PI (%)” value ([1]; dose 256 μg/mL) was 78.13%, the Weight gain ([2]; 8 mg/kg) was 44.96 ± 12.11 g and the “Clinical score Whole body” value ([2]; 8 mg/kg) was 2.23 ± 0.26. For the same molecule, the “Foot swelling degree Left” value ([2]; 8 mg/kg) was 1.95 ± 0.12 mL, the “Clinical score Arthritis index” value ([2]; 8 mg/kg) was 6.92 ± 0.55 and the “Foot swelling degree Right” value ([2]; 8 mg/kg) was 1.77 ± 0.54 mL. The Weight gain ([2]; 32 mg/kg) was 48.10 ± 9.19 g, the “Clinical score Whole body” value ([2]; 32 mg/kg) was 1.81 ± 0.32 and the “Foot swelling degree Left” value ([2]; 32 mg/kg) was 1.60 ± 0.19 mL. For the same molecule, the “Clinical score Arthritis index” value ([2]; 32 mg/kg) was 5.69 ± 0.37, the “Foot swelling degree Right” value ([2]; 32 mg/kg) was 1.54 ± 0.33 mL and the Weight gain ([2]; 128 mg/kg) was 50.83 ± 15.19 g. The “Clinical score Whole body” value ([2]; 128 mg/kg) was 1.54 ± 0.19, the “Foot swelling degree Left” value ([2]; 128 mg/kg) was 1.35 ± 0.14 mL and the “Clinical score Arthritis index” value ([2]; 128 mg/kg) was 4.17 ± 0.64. For the same molecule, the “Foot swelling degree Right” value ([2]; 128 mg/kg) was 1.35 ± 0.73 mL, the “therapeutic effect on primary arthritis (primary toe swelling degree)” value ([2]; high dose groups, compared with the model group) was “effective” and the “IL-1β” value ([3]; dose 8 μg/mL) was 746.38 ± 16.59 pg/mL. For the same molecule, the “PI (%)” value ([3]; dose 8 μg/mL) was 11.85%, the “IL-1β” value ([3]; dose 32 μg/mL) was 596.02 ± 19.97 pg/mL and the “PI (%)” value ([3]; dose 32 μg/mL) was 29.61%. The “IL-1β” value ([3]; dose 128 μg/mL) was 440.56 ± 11.38 pg/mL, the “PI (%)” value ([3]; dose 128 μg/mL) was 47.97% and the “inhibition of IL-1β production” value ([3]; in words) was “could significantly inhibit IL-1β production”.
